# Results taken from IntAct's records for PubMed 22405203.
# B1: Hypoxia-inducible factor prolyl hydroxylase (Caenorhabditis elegans), G5EBV0 (parent)
# chain: MSSAPNDDCEIDKGTPSTASLFTTLMLSQPSSSTAVLQCTYCGSSCTSSQLQTCLFCGTVAYCSKEHQQLDWLTHKMICKSLQTSGMVPSNLMPQAAPAVMAPIPPTVSFDDPALTTSLLLSLQNNPILNQTISNFPPTFSITSKTEPEPSIPIQIPQRISSTSTVPFSSEGSAFKPYRNTHVFNSISSESMSSMCTSHEASLEHMSSASLAMFPTSSTAQSDISRLAQVLSLAGDSPASLALVTTSVPSTASTATIPPPATTTSSATSSGKSETITVGKEKIIQTDDPDIQIIETEGGSKPTVSRTRKRPTPSNSADPKINYKDHNKNVVYSTTLQEHQKHLQNRGLALSIHQAMVLRLRYIAEHVIRSLNEFGWAVVDNFLGSDHYKFTAKEIERLYERGLFSPGQLMEAKHKDEFHIKDIRSDHIYWYDGYDGRAKDAATVRLLISMIDSVIQHFKKRIDHDIGGRSRAMLAIYPGNGTRYVKHVDNPVKDGRCITTIYYCNENWDMATDGGTLRLYPETSMTPMDIDPRADRLVFFWSDRRNPHEVMPVFRHRFAITIWYMDKSERDKALAKGKESDAACASKKENDPTSSSLNSLIGSLLRPRKNPSTHDLSKLDLRLFPSTSSDPALVSAADEDRVDISADFQSTSSLAHPESTDSGVSLSTFNVAHNHMERTTSLQSISDHFRSERSHERRSSTSSDQDLDEGLPPPPSTNPEYYI
# partner: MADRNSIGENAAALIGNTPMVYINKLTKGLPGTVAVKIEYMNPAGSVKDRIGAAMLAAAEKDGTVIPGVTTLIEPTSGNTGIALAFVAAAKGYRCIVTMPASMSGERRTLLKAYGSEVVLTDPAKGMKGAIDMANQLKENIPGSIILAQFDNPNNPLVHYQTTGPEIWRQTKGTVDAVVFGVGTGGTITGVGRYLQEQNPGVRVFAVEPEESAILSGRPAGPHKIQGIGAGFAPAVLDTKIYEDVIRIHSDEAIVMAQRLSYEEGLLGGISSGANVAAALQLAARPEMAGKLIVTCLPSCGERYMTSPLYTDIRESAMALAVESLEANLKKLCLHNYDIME
# Variants of: B1
# Settings: with cysk1_caeel cysl-1, Q93244
row,Variant,effect of a mutation on the interaction
1,E720K,disrupting interaction strength

# Variants of: B1
# Settings: with cysk1_caeel cysl-1, Q93244
# Remark: another data set of the same source
row,Variant,effect of a mutation on the interaction
1,E720K,decreasing interaction strength
2,I723A,decreasing interaction strength
